Test results: article PMC10149931, “Wiskott-Aldrich syndrome protein interacts and inhibits diacylglycerol kinase alpha promoting IL-2 induction” (Frontiers in Immunology, 2023)

Target: myc-DGKα (UniProt P23743 1-735)
Experiment: cell-based or functional assay

Chain of myc-DGKα (P23743 whole entry): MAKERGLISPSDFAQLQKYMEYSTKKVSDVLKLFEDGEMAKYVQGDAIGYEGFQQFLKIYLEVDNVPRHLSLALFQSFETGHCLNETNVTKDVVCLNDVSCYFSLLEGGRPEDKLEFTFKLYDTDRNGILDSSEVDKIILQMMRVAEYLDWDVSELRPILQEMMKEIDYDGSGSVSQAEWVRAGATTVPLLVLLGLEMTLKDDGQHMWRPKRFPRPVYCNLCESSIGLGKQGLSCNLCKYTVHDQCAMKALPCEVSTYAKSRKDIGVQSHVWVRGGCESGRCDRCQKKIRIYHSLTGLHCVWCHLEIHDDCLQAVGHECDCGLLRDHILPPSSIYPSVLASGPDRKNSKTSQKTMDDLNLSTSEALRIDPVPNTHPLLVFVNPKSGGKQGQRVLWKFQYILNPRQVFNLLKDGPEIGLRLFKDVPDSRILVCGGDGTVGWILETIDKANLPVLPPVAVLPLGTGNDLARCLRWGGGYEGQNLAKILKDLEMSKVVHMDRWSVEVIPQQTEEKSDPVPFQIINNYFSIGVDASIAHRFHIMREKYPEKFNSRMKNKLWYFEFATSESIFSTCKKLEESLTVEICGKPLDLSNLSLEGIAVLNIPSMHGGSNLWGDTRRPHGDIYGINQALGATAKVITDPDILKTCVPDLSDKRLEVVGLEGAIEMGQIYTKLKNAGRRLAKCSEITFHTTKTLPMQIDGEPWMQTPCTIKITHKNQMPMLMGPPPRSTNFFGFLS

B1: FLAG-WASp (natural protein, UniProt P42768 1-502, looked up)
chain: MSGGPMGGRPGGRGAPAVQQNIPSTLLQDHENQRLFEMLGRKCLTLATAVVQLYLALPPGAEHWTKEHCGAVCFVKDNPQKSYFIRLYGLQAGRLLWEQELYSQLVYSTPTPFFHTFAGDDCQAGLNFADEDEAQAFRALVQEKIQKRNQRQSGDRRQLPPPPTPANEERRGGLPPLPLHPGGDQGGPPVGPLSLGLATVDIQNPDITSSRYRGLPAPGPSPADKKRSGKKKISKADIGAPSGFKHVSHVGWDPQNGFDVNNLDPDLRSLFSRAGISEAQLTDAETSKLIYDFIEDQGGLEAVRQEMRRQEPLPPPPPPSRGGNQLPRPPIVGGNKGRSGPLPPVPLGIAPPPPTPRGPPPPGRGGPPPPPPPATGRSGPLPPPPPGAGGPPMPPPPPPPPPPPSSGNGPAPPPLPPALVPAGGLAPGGGRGALLDQIRQGIQLNKTPGAPESSALQPPPQSSEGLVGALMHVMQKRSRAIHSSDEGEDQAGDEDEDDEWDD
Q: With B1 as the binder, how does the “decrease in DGK activity of total homogenates of 293T cells co-transfected with myc-DGKα and FLAG-WASp, against myc-DGKα with GFP control vector” value read?
A: Its value is ~50%.
